In the domain aggregation screens of Martell et al. (2025):

Assay: soluble fraction after stress (log2 fold change); higher = more stays soluble; pooled small domains, quantitative proteomics
Settings: stress: 50 degC
Method in brief: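 Quantitative proteomics served as the high-throughput read-out for pooled custom libraries of small protein domains. Each was stressed at 50°C. Aggregation propensity is expressed as the base-two log fold change in soluble protein after stress. A higher value means a larger share of the protein remains in solution.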

Compared with “HMLDFLVSKYESELLADLLWSLGVVAVEEREATGDLVTLRTSLGDDHSFTRELVQEKFPDVIVSTAL”, “HMNVGKRLKSLREKYKFSLEEVAKKIKSSAGAISRYENNERKINSESLIRLSNLYNVSPEYILYG” is higher in “soluble fraction (log2)” value: -1.47 for the first, 0.0449 for the second.

First: HMDFEVGTVKWFNTKKGYGFITRDQGEDIFVHFRNIKGQGRRSLSDGERVSFVVTHGDKGLQADQVSP
Second: HMTALSIGTVVRFTGDRHYISSTGDTGYPASPGLAKITSINPGSKHPYHLIHIDNTSNVYGWVNKQDIIT
The “soluble fraction (log2)” value of the first is lower: -1.38 for the first, 0.16 for the second.

Going from “HMVEGVSLVEIYVDENSKYNGKLLSEIPKKENTLVIMIQRGEQVIIPHGNIRLESGDMLVVSKTEI” to “HMITPAGVPPALLPVFDQFTLPDGTLRRGAVAAALRALYGPDAPQSGKRYQMEYDRVMAWHSQYFTSLH”, the “soluble fraction (log2)” value rises from -0.649 to -0.34.

Going from “HMSREMIKSELESISGLGKSGIEKLYTHFINIENIKSASLENIRNIPGISYKVADNIYKHFH” to “HMGGSVYTVQKGDTLWSIAKEQLGSPLRYAEIYDLNKDVIEEAARGRGKKDSSNGHWLVVGTSLQIPEAT”, the “soluble fraction (log2)” value rises from -0.195 to 0.42.

Going from “HMEVAPEKVLEALNELPEIYKIVLNLYAVENMSHKEIAKKLGISLGSSKSRLSRGRVMLNTLLNR” to “HMAPVVELEDVTIVRGKATLLDRVNWVIDETDRWVIVGPNGAGKTTLLQVVSANLHPTSGKAMILDEVL”, the “soluble fraction (log2)” value rises from -1.42 to 0.023.

Going from “HMIGELVVEDLAAASEINVDTIRYYQRLGLLEPPRRRGRRAVYDHTHLERLAEIRRLAGAGFTLAQIGRLK” to “HMVMIPDLVGETIEDAKDILEGLGFEVEVRSEFPESDWGRPFARVTSLSPSAGQEVAKGTLVIIRSF”, the “soluble fraction (log2)” value rises from -2.53 to -0.288.

Compared with “HMGTKDVNAAPSAVGRTYDEAIEILNGYKAGYLEEYSDTVPKGTVISQSVQDGQVVIVVSLGPKPS”, “HMDPYEYQLELEKLINNATELNKKYNYDPLKDKILAADAVKNSLETYVLQNYIVALENEIKQTLNQYQIL” is lower in “soluble fraction (log2)” value: 0.0391 for the first, -0.44 for the second.

“HMITPKQTAETLGIATSTLRRWASEFEPFLSLRTGVKRTYTTDDITTLKRVKDLFAQGLKTEQVREAL” and “HMAGYDTYMVDRDAELLPWLLETLQRESRSKVKATLQGNGIKVNGKRVTQFNYPLKAGMKVSVSKSK” are within 0.2 log units of each other in “soluble fraction (log2)” value: -0.161 for the first, -0.0376 for the second.

First: HMSWRWVPVSGAYTTSALEAAGLTRAFDDQAAAEEWLGLFFDDLLREGVGEVSLYEEDRLVYGPMSL
Second: HMKRPEPESPEAERRSQRAADWLVRRDRGLTAAEQDEFLQWLAIDPRHGEWFALHRSVVGEFSA
The “soluble fraction (log2)” value of the first is lower: -3.1 for the first, -0.192 for the second.

Compared with “HMKNLHLVPNVVGMSAKEAKNTLKSFNIKYKPIYGSSNKYDENYIFNQNPRKGKTIKEQEVVTIYISRGAD”, “HMGVEVPRGDGSTVVRVRAGSSLADFAERIGADPAALITVLFRMGEMATVNQSLDEDTFKLLGAELGYDVQ” is higher in “soluble fraction (log2)” value: -1.07 for the first, -0.691 for the second.

First: HMSAVNLNDDEKAVYKSIKSGIRSLDELSLRTGMKIYELMAITVSLEMKGLVTKSPDGTLDAT
Second: HMYVEVPNFIGVPLVKVQSELASLGLVFNKSVVYQTSPYLKGNILDQRPLPGEVVPLNTEMSFTVSSGPA
The “soluble fraction (log2)” value of the first is lower: 0.147 for the first, 0.453 for the second.

Compared with “HMDSGLLSAREREVAGLVLSGMTYAEIGEAIFISPRTAEHHIARIRRRLGATSRTDLIAKLQAIVGID”, “HMDTVEFPVQVNGKVRGKITVAADAGKDAIETAALADEKVLAFLDGATPKKVIVVPGKLVNLVVQPG” is higher in “soluble fraction (log2)” value: -3.45 for the first, 0.435 for the second.

Compared with “HMKETKVIHVHLIFKKTSRFFGSISAIYSEFTAEEIGITEETLRHKGLSDGVSFATKKAIIQQGVLIR”, “HMGPSVGMTVGEMERDLIFRTLETVGDNRTKAADMLGISIRTLRNKLNEYREAGFEWPRKAG” is higher in “soluble fraction (log2)” value: -1.67 for the first, 0.00867 for the second.

Compared with “HMNKYYQQLLQADPTGFIDPFKDLGTYDSRLNTFKEPVSELLNPFSGRPYSKIWQKRIETMREIFISYIKS”, “HMDHVEDRMVLEVVLKKLTEEERRIVMLHAVSGLKHREIAKALDIPLSTVLSKYKRTLKKLEAYLMEME” is higher in “soluble fraction (log2)” value: -2.86 for the first, -1.78 for the second.

Going from “HMSQYELEDVEKQRLKFKNGDEKALWLLSDIYKDNSQSYEVRLAALRALSESRHPLIIFDIQSSVK” to “HMAAPVGLTQRQMEVAALVADGLTNAEIGRRLHITERSAESHLERVRIRLGFRSRAQVAAWFVTQE”, the “soluble fraction (log2)” value falls from -0.208 to -3.5.

First: HMEGRHFRILYILLNNERVTAPELAEEFGVSVRTIYRDIDTMSAAGIPIYMQGGRKGGIYLLEGY
Second: HMAVSGRMMVYEYIRQQMREGSLLPGSVLDLPAISHKLGISNTPLRDSLIRLEAEGYLTIYPRSKVVIN
The “soluble fraction (log2)” value of the first is higher: -1.16 for the first, -2.87 for the second.

Compared with “HMEVTLEEKLSYVEEYAKVHSHFSFRDLLKKQASKTQIVVTFLAILELMKTGKIQITQEHIFDDIVITAK”, “HMATVPNVVGLSEEKAKSRLANNGLNVSVTTEEVSDKSKDGIVSSQTSEGDTVKQGATITITVGKYVEK” is higher in “soluble fraction (log2)” value: -0.0755 for the first, 0.14 for the second.

Going from “HMQDVKRYLVNSNQLNVRTGPGKEFEISESLNKGDAVTLLHKESNGWWEVITSTGQGYVYSSMLTKDPW” to “HMSLGSSLFHARKKSGLTQEAVAEKLGVSRQTISKWETNETLPDIRQSKGLAMLYHMTLDELIE”, the “soluble fraction (log2)” value rises from -0.525 to -0.223.

For “HMRDTDAEVTYKLNEPFKTMGSVSVEGKVLEFAGSKWFARAAEFASNTEVYPLAKNRVRLTFTFHGLTAP”, the “soluble fraction (log2)” value was 0.105.
